This is an account of results in PMC5887321.

Where two headings read alike, the source gives them in different places.

What all share (assay): SEC-SAXS
The target in data set [1] is T1, DC-RIG-I (CARDs-truncated) (human, UniProt O95786 239-925).
T1 sequence: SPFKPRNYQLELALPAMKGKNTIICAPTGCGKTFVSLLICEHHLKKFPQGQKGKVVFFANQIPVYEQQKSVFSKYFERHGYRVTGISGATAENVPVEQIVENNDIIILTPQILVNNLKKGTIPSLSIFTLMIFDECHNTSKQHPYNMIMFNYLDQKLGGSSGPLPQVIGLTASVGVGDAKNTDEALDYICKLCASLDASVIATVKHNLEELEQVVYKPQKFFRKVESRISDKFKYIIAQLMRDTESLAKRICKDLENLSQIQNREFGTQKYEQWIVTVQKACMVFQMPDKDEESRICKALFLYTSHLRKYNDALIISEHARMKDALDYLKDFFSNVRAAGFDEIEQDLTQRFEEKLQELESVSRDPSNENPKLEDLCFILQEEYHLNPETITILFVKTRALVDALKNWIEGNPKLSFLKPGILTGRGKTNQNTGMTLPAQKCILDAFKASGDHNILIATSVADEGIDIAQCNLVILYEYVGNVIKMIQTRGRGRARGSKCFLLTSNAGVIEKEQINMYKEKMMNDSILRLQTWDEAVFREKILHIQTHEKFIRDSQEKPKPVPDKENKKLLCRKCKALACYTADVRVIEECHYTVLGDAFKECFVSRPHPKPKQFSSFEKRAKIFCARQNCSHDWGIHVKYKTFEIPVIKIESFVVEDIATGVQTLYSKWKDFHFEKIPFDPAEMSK

The target in data set [2] is T2, FL-RIG-I (human, UniProt O95786 1-925).
T2 sequence: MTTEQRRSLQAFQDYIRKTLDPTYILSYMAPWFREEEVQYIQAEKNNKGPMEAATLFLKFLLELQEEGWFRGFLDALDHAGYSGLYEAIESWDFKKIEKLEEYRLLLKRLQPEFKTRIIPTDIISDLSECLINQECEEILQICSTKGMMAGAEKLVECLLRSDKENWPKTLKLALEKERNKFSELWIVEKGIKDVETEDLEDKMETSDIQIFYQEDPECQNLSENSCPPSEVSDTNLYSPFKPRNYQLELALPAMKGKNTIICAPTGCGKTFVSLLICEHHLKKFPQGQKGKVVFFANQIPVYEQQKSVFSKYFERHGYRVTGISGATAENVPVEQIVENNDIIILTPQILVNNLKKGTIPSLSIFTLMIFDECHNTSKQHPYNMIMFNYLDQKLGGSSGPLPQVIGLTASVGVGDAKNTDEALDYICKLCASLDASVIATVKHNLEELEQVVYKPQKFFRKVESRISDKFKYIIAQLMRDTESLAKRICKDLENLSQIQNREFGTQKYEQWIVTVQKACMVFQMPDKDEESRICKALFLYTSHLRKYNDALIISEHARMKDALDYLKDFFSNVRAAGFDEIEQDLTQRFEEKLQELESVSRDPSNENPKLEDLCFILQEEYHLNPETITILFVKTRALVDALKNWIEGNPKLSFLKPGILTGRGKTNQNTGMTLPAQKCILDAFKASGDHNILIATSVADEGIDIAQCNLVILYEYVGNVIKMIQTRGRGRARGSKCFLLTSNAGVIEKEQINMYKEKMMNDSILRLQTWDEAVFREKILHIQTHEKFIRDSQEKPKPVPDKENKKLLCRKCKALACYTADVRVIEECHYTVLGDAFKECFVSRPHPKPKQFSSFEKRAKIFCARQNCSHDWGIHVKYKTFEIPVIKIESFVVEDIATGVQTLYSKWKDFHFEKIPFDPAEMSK

The target in data set [3] is T2, FL-RIG-I. This is another data set of the same source.
For data set [4], the target named is T1, DC-RIG-I (CARDs-truncated). This is another data set of the same source.
The target of data set [5] is T1, DC-RIG-I (CARDs-truncated). This is another data set of the same source.
Data set [6] deals with T2, FL-RIG-I. This is another data set of the same source.

As to GGACGUACGUUUCGACGUACGUCC (structured_RNA, 5'-triphosphate) [5'ppp 10 bp hairpin (10 bp)], the binding result (in data set [1]; with FL-RIG-I [2]) was “binds” throughout.

With GGCGCGGCUUCGGCCGCGCC (structured_RNA, 5'-triphosphate) [5'ppp 8 bp hairpin (8 bp, SEC peak 1)], the binding result (with FL-RIG-I [3]; in data set [4]) was “binds” each time.

B1: 8 bp-long (self-annealed 8 bp, SEC peak 2) (dsRNA)
RNA 1: GGCGCGGCUUCGGCCGCGCC
RNA 2: GGCGCGGCUUCGGCCGCGCC
modifications: 5'-triphosphate on each strand
With B1, the binding result (in data set [5]; in the data set with FL-RIG-I [6]) was “binds” throughout.
